Test results: patent US11547673
pKd: −log10 of the molar value.

Assays:
[1] = target: human ACE2 peptidase domain (amino acids 1-615 of human ACE2 with C-terminal His-10 and Avi tags) (human) (UniProt Q9BYF1)
[2] = target: human ACE2 peptidase domain (amino acids 1-615 of human ACE2 with C-terminal His-10 and Avi tags) (human) (UniProt Q9BYF1); test: biolayer interferometry; the reference KD of monomeric RBD is a literature value

UniProt Q9BYF1, sequence (Q9BYF1 18-615 limits assumed): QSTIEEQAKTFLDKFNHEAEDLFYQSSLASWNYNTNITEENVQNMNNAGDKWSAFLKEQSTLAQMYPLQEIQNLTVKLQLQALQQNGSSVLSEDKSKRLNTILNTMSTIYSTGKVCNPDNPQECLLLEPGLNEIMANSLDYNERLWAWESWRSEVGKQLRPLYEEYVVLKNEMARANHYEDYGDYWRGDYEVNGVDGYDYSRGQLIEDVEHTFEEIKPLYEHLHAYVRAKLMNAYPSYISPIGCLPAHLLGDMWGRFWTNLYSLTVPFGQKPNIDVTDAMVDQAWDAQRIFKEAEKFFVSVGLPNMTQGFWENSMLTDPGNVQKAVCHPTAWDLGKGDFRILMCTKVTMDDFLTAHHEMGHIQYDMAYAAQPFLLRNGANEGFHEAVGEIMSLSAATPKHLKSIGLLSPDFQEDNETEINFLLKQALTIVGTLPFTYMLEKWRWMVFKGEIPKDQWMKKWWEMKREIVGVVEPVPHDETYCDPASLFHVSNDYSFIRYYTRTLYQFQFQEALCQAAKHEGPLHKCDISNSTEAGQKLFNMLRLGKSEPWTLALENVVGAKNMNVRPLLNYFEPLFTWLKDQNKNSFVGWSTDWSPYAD

trimerised SARS-CoV-2 S receptor-binding domain fused to the T4 fibritin foldon trimerisation domain (ligand; other documents disagree on this pair)
pKd [1]: 11.30 | fold of the reported KD of monomeric RBD [2]: 1000 fold
